This note sets out measurements from the DeepSol protein solubility set.

A short description of the data set: soluble on expression in E. coli; label from the status in PepcDB or PDB records.
For the sequence “MWRCIVVISSDRRPEMPFKPLVTAGIESLLNTFLYRSPALKTARSRLLGKVLRVEVKGFSTSLILVFSERQVDVLGEWAGDADCTVIAYASVLPKLRDRQQLAALIRSGELEVQGDIQVVQNFVALADLAEFDPAELLAPYTGDIAAEGISKALRGGAKFLHHGIKRQQCYVAEAITEEWRMAPGPLEVAWFAEETAAVERAVDALTKRLEKLEAK”, the “soluble on expression in E. coli” value was “not soluble”.

Turning to “LGTLFFSLEYNFERKAFVVNIKEARGLPAMDEQSMTSDPYIKMTILPEKKHKVKTRVLRKTLDPAFDETFTFYGIPYTQIQELALHFTILSFDRFSRDDIIGEVLIPLSGIELSEGKMLMNREII”, the “soluble on expression in E. coli” value was “soluble”.

Take “GMTYKDYTGLDRTELLSKVRHMMSDKRFNHVLGVERAAIELAERYGYDKEKAGLAALLHDYAKELSDDEFLRLIDKYQPDPDLKKWGNNIWHGLVGIYKIQEDLAIKDQDILAAIAKHTVGSAQMSTLDKIVYVADYIEHNRDFPGVEEARELAKVDLNKAVAYETARTVAFLASKAQPIYPKTIETYNAYIPYLD”: the “soluble on expression in E. coli” value was “soluble”.

As to “MAHHHHHHMCAALSPAHFQLRVKILSEAAKHVPETGFTNAALAASLKSIGVEDITDRTLSQIFNRGFPIALVEHIVKSTNLHVQRELESVFSKDAIIKSIDSNVDAFVQNRLLLPTEKNVVEKAILSKLELLIPLAEHWPSAVALEYLPANLPYTVMNLAEFVDTTVYYMERATTLGELLDPARRILRSKAMASRIRSGEVDSNGASPTSEFLKSFLKGISLSSGPYAGPSALNLGWYCKRAQVAIVYGAVTTSLLGDVSQNAADTRSLTKAAVETVF”, the “soluble on expression in E. coli” value is on record as “not soluble”.

For “MKKLLFAIDDTEACERAAQYILDMFGKDADCTLTLIHVKPEFMLYGEAVLAAYDEIEMKEEEKAKLLTQKFSTFFTEKGINPFVVIKEGEPVEMVLEEAKDYNLLIIGSSENSFLNKIFASHQDDFIQKAPIPVLIVK”, the “soluble on expression in E. coli” value was “soluble”.

Turning to “ELQAIHEKVKTEHAALSTEVVHLRQRTEELLRCNEQQAAELETCKEQLFQSNMERKELHNTVMDLRGNIRVFCRIRPPLESEENRMCCTWTYHDESTVELQSIDAQAKSKMGQQIFSFDQVFHPLSSQSDIFEMVSPLIQSALDGYNICIFAYGQTGSGKTYTMDGVPESVGVIPRTVDLLFDSIRGYRNLGWEYEIKATFLEIYNEVLYDLLSNEQKDMEIRMAKNNKNDIYVSNITEETVLDPNHLRHLMHTAKMNRATASTAGNERSSRSHAVTKLELIGRHAEKQEISVGSINLVDLAGSESPKTSTRMTETKNINRSLSELTNVILALLQKQDHIPYRNSKLTHLLMPSLGGNSKTLMFINVSPFQDCFQESVKSLRFAASVNSCKMTKAKRNRYLNNSVANSSTQSNNSGSFDK”, the “soluble on expression in E. coli” value was “soluble”.

On to “AIAGSRQDPVPLSFVTLQEQRCVLSWFLGWNVAQKQRFLEDLISKAVPGKVSSLLDQLNTLQVNDRPPNIFECQLRLWTQWFDSWSEEERNAFLNCLEEKDPTFVAFFYDQVAGTAGRD”, for which the “soluble on expression in E. coli” value was “soluble”.

In the case of “MSLATTVKIATISPLSGSSSNLGLQIKNGAQLAVNEYKAEFAKLGMNLSLVAYDDQADPATGTAAARRVVADKNVLAVVGTLNTGVAIPASQALSTSKVAMVSPANTGTKVTDRGLKNMNRICARDDAQGPAGADFMVSTLKVKKVYVINDKTPYGEGLSGEAEKRLKAKGVQIVQSEGVAAEERDFTAIITKIQTLKPDAIYFGGLYGQIGPFAQQLRAKGVQVPLIGGDGMDSDELAKLAGAQGANNIYFTTVAPPLDSVPAAKTMAGNFKKAFGSDVQGYGIMGYDSAKVVLQGILDAAKKNGNKAPSRAQVETAIRSGTFGNLLTGTVQFDKNGDRKAGKMYVIAIKNAQRSTAGQVNVLREGHHHHHH”, the “soluble on expression in E. coli” value was “soluble”.

With “MSLKHLIKNYVQKLIKTELDAIQSKSVHDNRNFIYNGEFLILESEFGLHCFPRVQLNHALSYKNPNFDLGMRHWIVNHCKHDTTYIDIGANVGTFCGIAARHITQGKIIAIEPLTEMENSIRMNVQLNNPLVEFHHFGCAIGENEGENIFEVYEFDNRVSSLYFQKNTDIADKVKNSQVLVRKLSSLDISPTNSVVIKIDAEGAEIEILNQIYEFTEKHNGIEYYICFEFAMGHIQRSNRTFDEIFNIINSKFGSKAYFIHPLSSAEHPEFNKATQDINGNICFKYVSEGHHHHHH”, the “soluble on expression in E. coli” value is reported as “soluble”.

Regarding “MSLEGGKGPRLRDFLSGSLATWALGLAGLVGEAEDSEGEPLWLEKRFLRLSDGALLLRVLGIIAPSSRGGPRMLRGLDGPAAWRVWNLNHLWGRLRDFYQEELQLLILSPPPDLQTLGFDPLSEEAVEQLEGVLRLLLGASVQCEHRELFIRHIQGLSLEVQSELAAAIQEVTQPGAGVVLALSGPDPGELAPAELEMLSRSLMGTLSKLARERDLGAQRLAELLLEREPLCLRPEAPSREGHHHHHH”, the “soluble on expression in E. coli” value is “soluble”.

On to “MSLNRKLLTADERQARDTERRSQLDVALMEGVQAILDSDSFKAVLAANAKFHSYSVNNAMLIWLQNPAAERVAGFHTWRKLGRSVKKGAKGIMIYAPRVATNVDAATGSEETHVYFGIEHVFDISQTEGDDIPTLDCPVLTEERGHDVYDRLVTYATRDGLTVSSDVAHELSEAMGYYSAVSKRIWVRPTAKAQMLKTLIHEIAHHLTEGKHTREAHETIAEGVAFQVCACLGIDSGERSFPYIAGWSASEGGTALIKQVLGHIQAITKQVMAIVEPADEANEGAEGHHHHHH”, for which the “soluble on expression in E. coli” value is recorded as “soluble”.

Turning to “MEMAYDFAETKDTAIIFIYRPPVGDIQISPVLEGPRRLRLWNDITISLYKDVYPDIRLIESRSRVEVHLRKVEMVRWGGINGRPADKPQDDGKETMVEDSGDEENPSVMDLFSKIYQRSGDDVRRAMEKSFYESEGTVLSTDWDQVKSKKITRED”, the “soluble on expression in E. coli” value is listed as “not soluble”.

As for “MGSDKIHHHHHHMNDFIKFTGPADVLAFIPHTLGQTPTESFVALTMQGNKIGATLRVDAPFGQDPVGYAQTIVSYLTADEAATGSLLVIYTDESTTDGSSPYAGHVQALSTELETAGMPLQDAWLVTSELWRNYHCTDTGCCPDQPLDAITTSNGNAALIYRGSAVTGFIAPAPFTGDETAREAITARKPDGWPEDLEASRAAWARVLKDPKSLTTETAYQLAGALQHPTIRDYMMGDIVPHAPEQFTSVMLGVFPTRPDWARVDTAQEVAFELMKATPEGQRAPMLCLIGWLEWLKGQSSFAARYFKLALEDTAGYRLAELLDELVNRGLLADCSRDRKKAYDRRLKR”, the “soluble on expression in E. coli” value was “not soluble”.

As to “MSLRSAKHHFGAATSRGTRPSNEDTYQAGVIDIPAFAKRPPASLTIRNRSARVAGLRENRGADSASGDPQVFYFGIFDGHGGSECSTFMKETLHEYIQDTAAEFELQSSLRKAGENSASPDAESELPIRQGSNVARVQRLEKSLVQSWRNLVGGYFRRFVPPNFSHLAKHTAEESSSVPENNKGVTIEEILEYAFLRADLDFVSAQASREDDELSNVCRPLYQDDILYGPSRSQSLNIAGLRRFKGGSTASTVMISTPTPAPFWHPASPSSLLVSHVGDTRMLLCSTVTGEAIPLTSNHHPSSPIEANRLRRYAATFVTDSFGEERISGLANTRAFGDVQSKRIGVSAEPELRRFEIAPAEYSFLVLMSDGISEALTDQEVVDIIKEAKTPDEGARHVVNFATEVTRTGDNATCLVVRLGGWEREGHHHHHH”, the “soluble on expression in E. coli” value was “not soluble”.

For “MEKSKPNVVFVLGGPGSGKGTQCANIVRDFGWVHLSAGDLLRQEQQSGSKDGEMIATMIKNGEIVPSIVTVKLLKNAIDANQGKNFLVDGFPRNEENNNSWEENMKDFVDTKFVLFFDCPEEVMTQRLLKRGESSGRSDDNIESIKKRFNTFNVQTKLVIDHYNKFDKVKIIPANRDVNEVYNDVENLFKSMGF”, the “soluble on expression in E. coli” value was “soluble”.

For “MSDLHIPGTQSTPAIQGDWQAGRLSMQGDSYPENSYELFGQVIDWVERFLADGQRPLELDLRLLYLNTSSIKAMMDILDLLEEAHQGGRPVSLRWHYDRRNERVAELAEEFREDCSFPFAIQAHDE”, the “soluble on expression in E. coli” value was “not soluble”.

As for “MLEVIATCLEDVKRIESAGGKRIELISSYTEGGLTPSYAFIKKAVEVVSIPIHVMIRPHAKSFTYTEEEIEMMKEDIIVAQKLGAAGVVLGVLNERNEVDEEKLADLLSVVDGINVTYHRAIDDIKNPVEAMSTLKKFHKVTHVLTSGGQGNIVENIPVLTEMQKVSEGQIQLVAGAGVTKENIKRLLDETGITQAHVGTAVREGKSCFSEIDPNLVQELVEIIKLEHHHHHH”, the “soluble on expression in E. coli” value is recorded as “soluble”.

For the sequence “MYGEWGMGNILMMFHVYLVQGFRSEHGPVKDFSFERSSRSMLERSEQQIRAASSLEELLQIAHSEDWKLWRCRLKLKSLASMDSRSASHRSTRFAATFYDL”, the “soluble on expression in E. coli” value was “not soluble”.

With “METKTVAITMGDPAGIGPEIIVKALSEDGLNGAPLVVIGCLATLKRLQAKGITPNVELRAIERVAEARFAPGIIHVIDEPLAQPEALEAGKVQAQAGDLAYRCVKRATELALRGDVQAIATAPLNKEALHLAGHNYPGHTELLATLTHSRDYAMVLYTDKLKVIHVSTHIALRKFLDTLSTARVETVIGIADTFLKRVGYVKPRIAVAGVNPHAGENGLFGDEETRILTPAITDARAKGMDVYGPCPPDTVFLQAYEGQYDMVVAMYHDQGHIPLKLLGFYDGVNITAGLPFIRTSADHGTAFDIAWTGKAKSESMAVSIKLAMQLA”, the “soluble on expression in E. coli” value is listed as “soluble”.

Regarding “MCNTPTYCDLGKAAKDVFNKGYGFGMVKIDLKTKSCSGVEFSTSGHAYTDTGKASGNLETKYKVCNYGLTFTQKWNTDNTLGTEISWENKLAEGLKLTLDTIFVPNTGKKSGKLKASYKRDCFSVGSNVDIDFSGPTIYGWAVLAFEGWLAGYQMSFDTAKSKLSQNNFALGYKAADFQLHTHVNDGTEFGGSIYQKVNEKIETSINLAWTAGSNNTRFGIAAKYMLDCRTSLSAKVNNASLIGLGYTQTLRPGVKLTLSALIDGKNFSAGGHKVGLGFELEALEHHHHHH”, the “soluble on expression in E. coli” value is “soluble”.

Take “MSLAASRRRNTYSQKVNMSNNVRADSLSLLLFTLRSGKLMAINLLKVSEIIPCPALTHLPESHPHVKGIATLRGSSLAVIDLSRAIGERPLADPDGGCLIVTDVSRSKQGLHVQAVSKIVHCLTTDIRPPPYGSSSKSFITGVTQVDGVLVQVLDIEKVIHGIAPAQIVVQSTELAKEDAEVLSKARILVVDDSQVALQQSIITLRNLGIECHTARSAREAIDVLLDLQGTARQINVVVSDIEMSEMDGYALTRTLRDTPDFSDLYILLHTSLDSAMNSEKSQIAGANAVLTKFSSPELTKCLIEAARTVVAQGEGHHHHHH”: the “soluble on expression in E. coli” value was “soluble”.

Consider “IFNVPFGLNINLLPQYHMYTTQEAKDKIYYYSGNKVGFDIGASAQIGYMWQVTDNFGISLLGELGYSFDSFNANFDTAKVENPNDITGQIDAPEGTQKLGSASFYTHNLKIGILPKFNIKAFSIGIGLGIIVPMAITQNWKDEAAKTLFKDASTKFMSSVGFYGKLTFDYSIFFTEKIAMNIGLYTGVDAIGSINTTINNTSLNQGAHSEAPLLSYDIGLQLGFRFGPKAFN”, for which the “soluble on expression in E. coli” value was “not soluble”.

Take “LFEMGLQRYLESGLRNESENLLVALVRGPAGLQLDDHRLSGAYQRPLSGHYFRMDLPQGHWRSRSLWDFELPQPGVGLHANLELGKTVQSLLMLTSEYRKFGKQISITVAQDYTPVRASFR”: the “soluble on expression in E. coli” value is given as “not soluble”.
